The values below come from patent CN113912709A (SHENZHEN NATIONAL CLINICAL RES CENTER FOR INFECTIOUS …, dated 2022).

Substitutions are numbered along the chain they refer to.

Sequences and labels used below:
B1: VacW-138 (antibody, V domains shown)
VH: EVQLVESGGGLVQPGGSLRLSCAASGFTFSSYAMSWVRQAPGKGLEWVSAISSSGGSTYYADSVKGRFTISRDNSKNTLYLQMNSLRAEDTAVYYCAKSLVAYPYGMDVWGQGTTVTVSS
VL: AIQLTQSPFSLSASVGDRVTITCRASQGISSALAWYQQKPGKAPKLLIYDASSLESGVPSRFSGSGSGTDFTLTISSLQPEDFATYFCQQVDTYQFTFGPGTKVDIK
B2: VacW-105 (antibody, V domains shown)
VH: QVQLVQSGAEVKKPGSSVKVSCKASGGTFRSYTISWVRQAPGQGLEWMGRILPILGIANYAQKFQGRVTITADKSTSTAYMELSSLRSEDTAVYYCARVTGAPVESAAWFDPWGQGTLVTVSS
VL: not shown
B3: VacW-201 (antibody, V domains shown)
VH: EVQLVESGGGLVQPGGSLRLSCAASGFTFSSYWMNWVRQAPGKGLEWVANIKQDGSEKYYVDSVKGRFTISRDNAKNSLYLQMNSLRAEDTAVYYCARMEYPYGGVDYWGQGTLVTVSS
VL: NFMLTQPHSVSESPGKTVTISCTGSSGSIASNYVQWYQQRPGSAPTTVIYEDNQRPSGVPDRFSGSIDSSSNSASLTISGLKTEDEADYYCQSYDSSNRNWVFGGGTKLTVL
B4: VacW-215 (antibody, V domains shown)
VH: EVQLVESGGGLIQPGGSLRLSCAASGFTVSSNYMSWVRQAPGKGLEWVSVIYSGGSTYYADSVKGRFTISRDNSKNTLYLQMNSLRAEDTAVYYCARSTWLRGGFDYWGQGTLVTVSS
VL: B3 VL with R99H, N100F, W101Y, G105T, L109V
B5: VacW-212 (antibody, V domains shown)
VH: B3 VH with G55E, Y80F, A88V, V106I, S119A
VL: B3 VL
B6: VacW-209 (antibody, V domains shown)
VH: QVQLVESGGGVVQPGRSLRLSCAASGFTFSSIAMHWVRQAPGKGLEWVAVMSFDGSIKYYGDSVKGRFTISRDNSKSTLYLQMNSLRAEDTAVYYCARGVQGYYDRSGYYNLDYNYGMDVWGQGTTVTVSS
VL: QSVLTQPPSVSGAPGQRVTISCTGSSSNIGAGYDVHWYQQLPGTAPKLLIYGNSNRPSGVPDRFSGSKSGTSASLAITGLQAEDEADYYCQSYDSSLSGWVFGGGTKLTVL

For this assay, the target named is T1, SARS-CoV-2 RBD protein L452R mutant (SARS-CoV-2, UniProt P0DTC2 319-541).
T1 construct: domain: RBD
The experiment in a line: SPR, Biacore 8K, RBD on CM5 chip, IgG injected, 1:1 model.
Take B1: the affinity, expressed as Kd, was 1.96 nM.
As for B2, the figure is 3.69 nM; as for B3, 1.57 nM; as for B4, 0.714 nM.
The result for B5 reads 1.2 nM.
In turn, B6 had a Kd of 0.0237 nM.
